In paper PMC4072051:
“And” between values parts separate entries of the source, which are not always exact repeats. Identical values can stand only once.

Target: Recombinant TssK (SMA2253), purified from S. marcescens, His6 tag removed (Serratia marcescens Db10)
Experiment: AUC; sedimentation velocity, 4°C, 49000 rev./min, 50 mM Tris/HCl pH 7.5, 250 mM NaCl; Peak 1 at 0.2 to 0.7 mg/ml, Peak 2 at 0.2 and 0.5 mg/ml; c(s) analysis in SEDFIT

“Recombinant TssK (SMA2253), purified from S. marcescens, His6 tag removed (natural protein)” was tested, and the stoichiometry N was 3 and 6.
